From PMC3665621 (Nuclear medicine and biology, 2013)

Legend:
cathepsin B = details: room temperature, up to 96 hours
[1] = system: HPAC tumor-bearing SCID mice; details: mouse, in vivo

| Substance | cleaved bond (cathepsin B) | increase of tumor accumulation from 24 h to 72 h post-injection [1] | lower liver retention compared to control (177Lu-MAC0) [1] |
| --- | --- | --- | --- |
| DO3A(tBu)3-G- (D)S(tBu)-(D)S(tBu)-G- G-G-F | G-G, 24 h | – | – |
| X = GSS, Y = PMGLP [177Lu-MAC2] | – | 113% | 2.1 fold |
